The test has as its target TPP-2305 (hTNFRSF12Aaa28-80) (Human) (UniProt Q9NP84). The test can be described thus: SPR (Biacore T100), IgG captured, TPP-2305 injected, 1:1 model. A general note: Surface plasmon resonance follows binding to a sensor surface in real time, without labels.

B1: ITEM-1 (antibody, from another filing, mouse IgG1, V domains shown)
VH: EVKLEESGGGLVQPGGSMKLSCVASGFSFSNYWMNWVRQSPEKGLEWVAEIRLKSNNYATHYAESVKGRFTISRHDSKSSVYLQMNNLRAEDTGIYYCTRAYADYFDYWGQGTTLTVSS
VL: DIVLTQSPASLVVSLGQRATISCRASQSVSTSTYSYMHWYQQKPGQPPKILIKYASNLESGVPARFSGSGSGTDFTLNIHPVEEEDTATYYCQHSWEIPYTFGGGTKLEIKR
The molecule B1 came in with a Kd of 2.9 nM, a koff of 0.011 s⁻¹ and a kon of 3.8e+06 M⁻¹ s⁻¹.

One may read the Kd as the concentration at which binding is half-saturated. Read a high Kd as lower affinity. As usually defined, the koff is a measure of how fast the partners let go of each other. As a reminder, the kon is the rate constant with which the complex forms. A lower kon goes with slow association.
